Numbering of substitutions follows the chain as printed. Numbers in names are those of the source.

Experiment [1] concerns the target Sb44, synthetic nanobody (sybody) against TGP. As to the kind of experiment: SEC; TGP (or Cys mutant) and sybody (or mutant) mixed 1:3 on ice for 20 min; Superdex 200 Increase 10/300 GL; 150 mM NaCl, 20 mM HEPES pH 7.5; absorbance at 493 nm and 280 nm. In general terms: In gel filtration, larger molecules generally elute earlier.
In experiment [2] the target is Sb44 V100C. As to the kind of experiment: SDS-PAGE (non-reducing); individually purified proteins; Laemmli sample buffer without DTT; 12% gel; Coomassie and in-gel fluorescence; shows disulfide-linked species.
The target in experiment [3] is Sb44 V100C. The experiment can be described thus: SEC; TGP (or Cys mutant) and sybody (or mutant) mixed 1:3 on ice for 20 min; Superdex 200 Increase 10/300 GL; 150 mM NaCl, 20 mM HEPES pH 7.5; absorbance at 493 nm and 280 nm.

B1: Sb44, synthetic nanobody (sybody) against TGP (VHH)
VHH: QVQLVESGGGLVQAGGSLRLSCAASGFPVGRASMWWYRQAPGKEREWVAAISSYGWVTAYADSVKGRFTISRDNAKNTVYLQMNSLKPEDTAVYYCEVSVGTGYRGQGTQVTVSA
Regarding B1, in experiment [1], the stoichiometry N (commonly the number of molecules, sites or subunits per partner or assembly) amounted to 2.

B2: Sb44 V100C (VHH)
VHH: B1 VHH with V100C
On to B2, for which the stoichiometry N in the experiment with Sb44 V100C [2] and in the experiment with Sb44 V100C [3] was 2 each time.

The values are drawn from publication PMC12368520.
